From patent US10934351B2, “Cancer stem cell-specific molecule” (CHUGAI SEIYAKU KABUSHIKI KAISHA, priority 2011, dated 2021) come the findings set out here.

Assay [1] relates to PLR123. In words: Differentiation-enhancing effect of BMP4 (CK20 expression, quantitative real-time PCR). Format: cell-based, human. To be noted: BMP4 20 nM; irinotecan-non-treated and irinotecan-treated PLR123 (FIG. 73B). The method, then: (§1) BMP4 was assessed for the differentiation-enhancing effect on irinotecan-non-treated and irinotecan-treated PLR59 and PLR123. To assess the differentiation-enhancing effect on irinotecan-non-treated cells, PLR59 and PLR123 cells suspended in the media where BMP4 (R&D Systems; a final concentration of 20 nM) or a control buffer was added to culture media were seeded at a cell density of 5×10^5 cells/1.5 ml/well to each well of a 12-well plate. The cells were passaged while changing the culture media with the same type of medium 2, 4, and 7 days after seeding. To assess the differentiation-enhancing effect on irinotecan-treated cells, PLR59 or PLR123 was seeded at a cell density of 17×10^5 cells/5 ml/flask to a 12.5-ml culture flask. Following day, irinotecan was added at a final concentration of 15 μM. The flask was incubated at 37° C. for 72 hours in a CO2 incubator. Then, the medium in the flask was changed with a medium containing BMP4 or a control buffer. The medium was further changed with the same type of medium 2, 4, and 7 days after the initial medium change. […]
(§2) Quantitative real-time PCR was carried out using the cDNAs isolated as described above.

Assay [2] deals with PLR59. The assay is described as above. It is filed as cell-based, human. To be noted: BMP4 20 nM; irinotecan-non-treated and irinotecan-treated PLR59 (FIG. 73A). The method, then:
as §1, §2

Assay [3] relates to irinotecan-non-treated PLR123. Briefly: Internalization activity / anti-tumor effect with Mab-ZAP or Rat-ZAP (CellTiter-Glo). Format: cell-based, human. The conditions noted are these: with Mab-ZAP or Rat-ZAP 1 μg/ml, 72 hours. The method, then:
(§3) Mab-ZAP and Rat-ZAP are anti-mouse IgG antibody and anti-rat IgG antibody, respectively, conjugated with saporin, a toxin that inhibits protein synthesis (Advanced Targeting Systems). To assess the activity of internalization into irinotecan-non-treated cells, PLR59 and PLR123 cells were seeded at a cell density of 30000 cells/80 μl/well to respective wells of a 96-well plate. Following day, each antibody solution was added at a final concentration of 0.01, 0.1, or 1 μg/ml to the respective wells. Then, Mab-ZAP or Rat-ZAP was added at a final concentration 1 μg/ml to the respective wells, and the plate was incubated at 37° C. for 72 hours in a CO2 incubator. To assess the activity of internalization into irinotecan-treated cells, PLR59 and PLR123 cells were seeded in a 96-well plate, and irinotecan was added at a final concentration of 15 μM to each well. The plate was incubated at 37° C. for 72 hours in a CO2 incubator. Various antibodies were assessed for the activity of internalization to cells cultured as described above in the presence or absence of irinotecan. For assay, the various antibodies were each assessed for the internalization activity into cells contained in each well where the medium was replaced with the same irinotecan-free medium as used for irinotecan-non-treated cells. Seventy-two hours after addition of antibodies and Mab-ZAP or Rat-ZAP, 10 μl of 3% SDS (Nacalai Tesque) was added to each well of the plate. The cells in the plate were lysed thoroughly by stirring the plate using a plate mixer. Then, 100 μl of CellTiter-Glo™ Luminescent Cell Viability Assay (Promega) was added to each well. The mixture in each well was assayed to determine its luminescent signal. […] In Table 14, symbols, −, +, ++, and +++, represent relative values for the internalization activity when a test antibody was assayed at a concentration of […]. […] Symbols, −, +, ++, and +++, indicate that the relative value is less than 5%, 5% or more and less than 15%, 15% or more and less than 25%, and 25% or more, respectively.

Assay [4] deals with irinotecan-non-treated PLR59. Described as above. To be noted: with Mab-ZAP or Rat-ZAP 1 μg/ml, 72 hours. It is filed as cell-based, human. The method, then:
as §3

In assay [5] the test system is irinotecan-treated PLR123. The description is as above. Format: cell-based, human. To be noted: PLR123, Irinotecan-treated (15 μM, 72 hours). As to the method:
as §3

The subject of assay [6] is irinotecan-treated PLR59. The assay is described as above. The conditions noted are these: PLR59, Irinotecan-treated (15 μM, 72 hours). Format: cell-based, human. As to the method:
as §3

Assay [7] deals with irinotecan-non-treated PLR123. In words: Flow cytometry (FCM) binding activity of commercially available antibodies to cell-surface antigens. More on the design: species or system human. The conditions noted are these: with antibody. The method, then:
(§4) The present inventors tested whether an anti-tumor effect can be expected with target therapy using a membrane protein expressed at a high level as the target in irinotecan-treated or non-treated PLR59 and PLR123. Commercially available antibodies shown in Table 12 were assessed by flow cytometry (FCM) for the binding activity to antigens expressed on the cell surface of irinotecan-treated or non-treated PLR59 or PLR123.

For assay [8], the system named is irinotecan-non-treated PLR59. Described as above. More on the design: species or system human. The conditions noted are these: with antibody. The method, then: as §4

B1: BMP4: bone morphogenetic protein 4, polypeptide of SEQ ID NO: 4 (R&D Systems) (protein, listed as Homo sapiens)
chain: MIPGNRMLMVVLLCQVLLGGASHASLIPETGKKKVAEIQGHAGGRRSGQSHELLRDFEATLLQMFGLRRRPQPSKSAVIPDYMRDLYRLQSGEEEEEQIHSTGLEYPERPASRANTVRSFHHEEHLENIPGTSENSAFRFLFNLSSIPENEVISSAELRLFREQVDQGPDWERGFHRINIYEVMKPPAEVVPGHLITRLLDTRLVHHNVTRWETFDVSPAVLRWTREKQPNYGLAIEVTHLHQTRTHQGQHVRISRSLPQGSGNWAQLRPLLVTFGHDGRGHALTRRRRAKRSPKHHSQRARKKNKNCRRHSLYVDFSDVGWNDWIVAPPGYQAFYCHGDCPFPLADHLNSTNHAIVQTLVNSVNSSIPKACCVPTELSAISMLYLDEYDKVVLKNYQEMVVEGCGCR
For the molecule B1, the CK20 expression level result in assay [1] and in assay [2] was “elevated CK20 levels” in each case.

B2: EPCAM (protein)
chain: QEECVCENYKLAVNCFVNNNRQCQCTSVGAQNTVICSKLAAKCLVMKAEMNGSKLGRRAKPEGALQNNDGLYDPDCDESGLFKAKQCNGTSMCWCVNTAGVRRTDKDTEITCSERVRTYWIIIELKHKAREKPYDSKSLRTALQKEITTRYQLDPKFITSILYENNVITIDLVQNSSQKTQNDVDIADVAYYFEKDVKGESLFHSKKMDLTVNGEQLDLDPGQTLIYYVDEKAPEFSMQGLKAGVIAVIVVVVIAVVAGIVVLVISRKKRMAKYEKAEIKEMGEMHRELNA
As for B2, the internalization activity level result in assay [3], in assay [4], in assay [5] and in assay [6] was “+++ (25% or more)” in each case. Further, the results for the “binding activity by flow cytometry (FCM), Antibody +” value in assay [7] and in assay [8] were 7701 and 7563, respectively.
